Here are results for seven molecules from US20260209301A1 (LIFEARC, published 2026).

No end group written: not given here.

What all share (assay): cell-based or functional assay
The target of one experiment is T1, human GalR2 (human, UniProt O43603 1-387).
T1 sequence (looked up): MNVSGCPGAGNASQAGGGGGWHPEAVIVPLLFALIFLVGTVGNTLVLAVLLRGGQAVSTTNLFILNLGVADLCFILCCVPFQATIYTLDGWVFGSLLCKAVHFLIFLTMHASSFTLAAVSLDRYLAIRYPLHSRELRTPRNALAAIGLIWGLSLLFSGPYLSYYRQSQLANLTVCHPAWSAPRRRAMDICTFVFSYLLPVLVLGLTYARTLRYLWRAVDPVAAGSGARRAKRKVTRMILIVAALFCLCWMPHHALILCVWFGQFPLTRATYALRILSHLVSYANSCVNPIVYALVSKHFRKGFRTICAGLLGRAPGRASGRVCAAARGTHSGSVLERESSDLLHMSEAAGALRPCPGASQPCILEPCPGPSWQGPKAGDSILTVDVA

The target in a further experiment is T2, human GalR1 (human, UniProt P47211 1-349).
T2 sequence (looked up): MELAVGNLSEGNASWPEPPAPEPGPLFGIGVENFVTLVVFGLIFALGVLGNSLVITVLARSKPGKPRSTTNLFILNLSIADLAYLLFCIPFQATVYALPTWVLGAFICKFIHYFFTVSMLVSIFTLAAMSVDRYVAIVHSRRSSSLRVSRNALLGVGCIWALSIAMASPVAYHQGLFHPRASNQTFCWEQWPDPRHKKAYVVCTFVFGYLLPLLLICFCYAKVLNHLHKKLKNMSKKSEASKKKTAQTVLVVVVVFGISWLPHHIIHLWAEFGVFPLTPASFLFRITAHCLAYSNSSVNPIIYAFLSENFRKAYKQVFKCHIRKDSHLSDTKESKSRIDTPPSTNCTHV

In a further experiment the target is T3, rat GalR2 (Rattus rattus, UniProt O08726 1-372).
T3 sequence (looked up): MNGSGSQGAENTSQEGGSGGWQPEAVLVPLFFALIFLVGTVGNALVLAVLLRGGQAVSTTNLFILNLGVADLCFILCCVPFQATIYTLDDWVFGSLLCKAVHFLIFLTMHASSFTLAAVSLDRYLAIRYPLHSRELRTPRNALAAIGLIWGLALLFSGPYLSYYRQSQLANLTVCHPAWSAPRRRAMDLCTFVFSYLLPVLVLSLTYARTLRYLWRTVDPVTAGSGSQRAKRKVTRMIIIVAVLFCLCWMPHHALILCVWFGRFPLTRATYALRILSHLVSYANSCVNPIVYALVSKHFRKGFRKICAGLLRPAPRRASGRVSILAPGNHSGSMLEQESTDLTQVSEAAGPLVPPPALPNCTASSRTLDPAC

The next experiment deals with T4, cynomolgus GalR2 (Macaca fascicularis, UniProt A0A2K5WWW1 1-386).
T4 sequence: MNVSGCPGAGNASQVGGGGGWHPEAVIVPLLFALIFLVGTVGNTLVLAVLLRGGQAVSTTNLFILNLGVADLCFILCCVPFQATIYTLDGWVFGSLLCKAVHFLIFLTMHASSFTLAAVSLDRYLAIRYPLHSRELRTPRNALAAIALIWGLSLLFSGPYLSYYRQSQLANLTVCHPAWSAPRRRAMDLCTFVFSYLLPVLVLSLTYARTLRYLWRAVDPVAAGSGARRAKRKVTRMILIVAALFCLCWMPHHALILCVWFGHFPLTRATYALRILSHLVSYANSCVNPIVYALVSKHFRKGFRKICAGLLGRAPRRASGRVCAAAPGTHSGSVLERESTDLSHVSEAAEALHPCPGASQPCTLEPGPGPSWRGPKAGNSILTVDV

Another experiment has as its target T5, mouse GalR2 (Mus musculus, UniProt O88854 1-371).
T5 sequence (looked up): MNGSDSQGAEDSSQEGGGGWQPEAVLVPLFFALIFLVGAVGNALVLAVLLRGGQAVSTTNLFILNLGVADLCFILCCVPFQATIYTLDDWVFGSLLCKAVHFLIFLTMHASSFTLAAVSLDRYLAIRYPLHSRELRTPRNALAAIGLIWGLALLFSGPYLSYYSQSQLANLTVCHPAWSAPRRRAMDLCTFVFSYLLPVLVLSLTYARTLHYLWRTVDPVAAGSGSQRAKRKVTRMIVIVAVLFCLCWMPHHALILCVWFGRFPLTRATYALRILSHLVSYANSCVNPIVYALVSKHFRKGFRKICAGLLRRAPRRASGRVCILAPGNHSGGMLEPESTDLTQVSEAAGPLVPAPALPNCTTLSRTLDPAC

Consider GWTLNSAGYLLGPHA [Galanin 1-15], for which, in the experiment with human GalR2, the “Beta Arrestin pEC50” value was found to be 7.2 pEC50 and the “Calcium pEC50” value stood at 8.6 pEC50.

As to WTLNSAGYLLGPKKKKK (also: PEG (dPEG24) on one lysine, site not given here) [Nax409-9], in the experiment with human GalR1, the “Beta Arrestin IA (%)” value is 7%, the “cAMP IA (%)” value is 66% and the “cAMP pEC50” value came out at 6.5 pEC50. Moreover, in the experiment with human GalR2, the “Beta Arrestin pEC50” value was found to be 5.8 pEC50 and the “Calcium pEC50” value came out at 6.9 pEC50.

On to WTLNSAGYLL [Galanin 2-11], for which, in the experiment with human GalR2, the “Beta Arrestin pEC50” value amounted to 6.4 pEC50 and the “Calcium pEC50” value turned out to be 7.6 pEC50.

For GWTLNSAGYLLGPHAVGNHRSFSDKNGLTS [Galanin 1-30 (human)], the entries for the “calcium assay activity (quantity not given)” value with rat GalR2, with cynomolgus GalR2 and with mouse GalR2 were 8.8, 9.6 and 9, respectively.

For RGRGNWTLNSAGYLLGPVLPPPALALA [M1145], in the experiment with human GalR1, the “Beta Arrestin IA (%)” value amounted to 24.5%, the “cAMP IA (%)” value stood at 86.7% and the “cAMP pEC50” value was 6.8 pEC50. In the experiment with human GalR2, the “Beta Arrestin pEC50” value was found to be 7.9 pEC50 and the “Calcium pEC50” value amounted to 8.9 pEC50.

On to GWTLNSAGYLLGPQPPGFSPFR [M617], for which, in the experiment with human GalR1, the “Beta Arrestin IA (%)” value turned out to be 99%, the “Beta Arrestin pEC50” value amounted to 8.68 pEC50, the “cAMP IA (%)” value was found to be 90.1% and the “cAMP pEC50” value is 10 pEC50. Besides, in the experiment with human GalR2, the “Beta Arrestin pEC50” value was determined as 8.4 pEC50 and the “Calcium pEC50” value is 9.6 pEC50.

On to WTLNSAGYLLGPHAIDNHRSFHDKYGLA [Galanin 2-29 (rat)], for which, in the experiment with human GalR1, the “Beta Arrestin IA (%)” value was found to be 67.2%, the “Beta Arrestin pEC50” value worked out at 8.09 pEC50, the “cAMP IA (%)” value was 90.8% and the “cAMP pEC50” value was 8.6 pEC50. Moreover, in the experiment with human GalR2, the “Beta Arrestin pEC50” value came to 8.1 pEC50 and the “Calcium pEC50” value was 9.2 pEC50.
